Test results: paper PMC5052520, “The Important Role of Halogen Bond in Substrate Selectivity of Enzymatic Catalysis” (Scientific Reports, 2016)

Columns and labels:
Experiment in all cases: hydrolysis kinetics, product by liquid chromatography
Type in all cases: biochemical, Synechocystis sp. PCC 6803
N#CCc1cccc(Cl)c1 = test system: N#CCc1cccc(Cl)c1
Text: (§1) hydrolysis kinetics, product by liquid chromatography on nitrilase (WT)

N#CCc1ccccc1Cl = test system: N#CCc1ccccc1Cl
Text: as §1

N#CCc1ccc(Cl)cc1 = test system: N#CCc1ccc(Cl)cc1
Text: as §1

nitrilase (WT) (Synechocystis sp. PCC 6803 substr. Kazusa)
Km (N#CCc1cccc(Cl)c1): 460 ± 40 µM
kcat (N#CCc1cccc(Cl)c1): 0.27 ± 0.02 s⁻¹
kcat/Km (N#CCc1cccc(Cl)c1): 590 M⁻¹ s⁻¹

nitrilase (WT) (Synechocystis sp. PCC 6803 substr. Kazusa; H141W)
Km (N#CCc1ccccc1Cl): 650 ± 180 µM
kcat (N#CCc1ccccc1Cl): 0.21 ± 0.05 s⁻¹
kcat/Km (N#CCc1ccccc1Cl): 330 M⁻¹ s⁻¹

nitrilase (WT) (Synechocystis sp. PCC 6803 substr. Kazusa; T54Y)
Km (N#CCc1cccc(Cl)c1): 9600 ± 270 µM
kcat (N#CCc1cccc(Cl)c1): 0.08 ± 0.13 s⁻¹
kcat/Km (N#CCc1cccc(Cl)c1): 10 M⁻¹ s⁻¹
Km (N#CCc1ccc(Cl)cc1): 710 ± 30 µM
kcat (N#CCc1ccc(Cl)cc1): 0.56 ± 0.07 s⁻¹
kcat/Km (N#CCc1ccc(Cl)cc1): 560 M⁻¹ s⁻¹
